# Test results published in paper PMC10641296 (2023).
# Values joined by “and” are separate entries in the source; they are usually repeats but may differ in a detail not shown here. Equal entries are not always repeated.
# Columns and labels:
# [1] = target: recombinant histidine-tagged SCM-2 of S. canis strain IMT40096 (Streptococcus canis); experiment: SPR
# [2] = target: recombinant histidine-tagged SCM-2 of S. canis strain IMT42870 (Streptococcus canis); experiment: SPR
binder,measurement,setting,value
human fibrinogen (complex) chain 1: GPRVVERHQSACKDSDWPFCSDEDWNYKCPSGCRMKGLIDEVNQDFTNRINKLKNSLFEYQKNNKDSHSLTTNIMEILRGDFSSANNRDNTYNRVSEDLRSRIEVLKRKVIEKVQHIQLLQKNVRAQLVDMKRLEVDIDIKIRSCRGSCSRALAREVDLKDYEDQQKQLEQVIAKDLLPSRDRQHLPLIKMKPVPDLVPGNFKSQLQKVPPEWKALTDMPQMRMELERPGGNEITRGGSTSYGTGSETESPRNPSSAGSWNSGSSGPGSTGNRNPGSSGTGGTATWKPGSSGPGSTGSWNSGSSGTGSTGNQNPGSPRPGSTGTWNPGSSERGSAGHWTSESSVSGSTGQWHSESGSFRPDSPGSGNARPNNPDWGTFEEVSGNVSPGTRREYHTEKLVTSKGDKELRTGKEKVTSGSTTTTRRSCSKTVTKTVIGPDGHKEVTKEVVTSEDGSDCPEAMDLGTLSGIGTLDGFRHRHPDEAAFFDTASTGKTFPGFFSPMLGEFVSETESRGSESGIFTNTKESSSHHPGIAEFPSRGKSSSYSKQFTSSTSYNRGDSTFESKSYKMADEAGSEADHEGTHSTKRGHAKSRPVRDCDDVLQTHPSGTQSGIFNIKLPGSSKIFSVYCDQETSLGGWLLIQQRMDGSLNFNRTWQDYKRGFGSLNDEGEGEFWLGNDYLHLLTQRGSVLRVELEDWAGNEAYAEYHFRVGSEAEGYALQVSSYEGTAGDALIEGSVEEGAEYTSHNNMQFSTFDRDADQWEENCAEVYGGGWWYNNCQAANLNGIYYPGGSYDPRNNSPYEIENGVVWVSFRGADYSLRAVRMKIRPLVTQ chain 2: GHRPLDKKREEAPSLRPAPPPISGGGYRARPAKAAATQKKVERKAPDAGGCLHADPDLGVLCPTGCQLQEALLQQERPIRNSVDELNNNVEAVSQTSSSSFQYMYLLKDLWQKRQKQVKDNENVVNEYSSELEKHQLYIDETVNSNIPTNLRVLRSILENLRSKIQKLESDVSAQMEYCRTPCTVSCNIPVVSGKECEEIIRKGGETSEMYLIQPDSSVKPYRVYCDMNTENGGWTVIQNRQDGSVDFGRKWDPYKQGFGNVATNTDGKNYCGLPGEYWLGNDKISQLTRMGPTELLIEMEDWKGDKVKAHYGGFTVQNEANKYQISVNKYRGTAGNALMDGASQLMGENRTMTIHNGMFFSTYDRDNDGWLTSDPRKQCSKEDGGGWWYNRCHAANPNGRYYWGGQYTWDMAKHGTDDGVVWMNWKGSWYSMRKMSMKIRPFFPQQ chain 3: YVATRDNCCILDERFGSYCPTTCGIADFLSTYQTKVDKDLQSLEDILHQVENKTSEVKQLIKAIQLTYNPDESSKPNMIDAATLKSRKMLEEIMKYEASILTHDSSIRYLQEIYNSNNQKIVNLKEKVAQLEAQCQEPCKDTVQIHDITGKDCQDIANKGAKQSGLYFIKPLKANQQFLVYCEIDGSGNGWTVFQKRLDGSVDFKKNWIQYKEGFGHLSPTGTTEFWLGNEKIHLISTQSAIPYALRVELEDWNGRTSTADYAMFKVGPEADKYRLTYAYFAGGDAGDAFDGFDFGDDPSDKFFTSHNGMQFSTWDNDNDKFEGNCAEQDGSGWWMNKCHAGHLNGVYYQGGTYSKASTPNGYDNGIIWATWKTRWYSMKKTTMKIIPFNRLTIGEGQQHHLGGAKQVRPEHPAETEYDSLYPEDDL,Kd,[1],15.5 nM and 14.3 nM and 15.1 nM
same,koff,[1],0.000922 s⁻¹ and 0.000948 s⁻¹ and 0.000989 s⁻¹
same,Kd,[2],177 nM and 188 nM and 208 nM
same,koff,[2],0.00271 s⁻¹ and 0.0024 s⁻¹ and 0.00216 s⁻¹
